According to PMC4931317, “UtpA and UtpB chaperone nascent pre-ribosomal RNA and U3 snoRNA to initiate eukaryotic ribosome assembly” (Nature Communications, 2016):

B2: Utp5 (natural protein, S. cerevisiae, UniProt Q04177 1-643, looked up)
chain: MDSPVLQSAYDPSGQYLCYVTVALDKQRVGVQPTQRATSSGVDTVWNENFLYLEDSKLKVTCLKWVNLASSDTVAIILGMNNGEIWLYSVLANEVTYKFTTGNSYEIKDIDLMGNQLWCIDSSDAFYQFDLLQFKLLQHFRINNCVQLNKLTIVPAGDSVAQLLVASHSISLIDIEEKKVVMTFPGHVSPVSTLQVITNEFFISGAEGDRFLNVYDIHSGMTKCVLVAESDIKELSHSGQADSIAVTTEDGSLEIFVDPLVSSSTKKRGNKSKKSSKKIQIVSKDGRKVPIYNAFINKDLLNVSWLQNATMPYFKNLQWREIPNEYTVEISLNWNNKNKSADRDLHGKDLASATNYVEGNARVTSGDNFKHVDDAIKSWERELTSLEQEQAKPPQANELLTETFGDKLESSTVARISGKKTNLKGSNLKTATTTGTVTVILSQALQSNDHSLLETVLNNRDERVIRDTIFRLKPALAVILLERLAERIARQTHRQGPLNVWVKWCLIIHGGYLVSIPNLMSTLSSLHSTLKRRSDLLPRLLALDARLDCTINKFKTLNYEAGDIHSSEPVVEEDEDDVEYNEELDDAGLIEDGEESYGSEEEEEGDSDNEEEQKHTSSKQDGRLETEQSDGEEEAGYSDVEME
notes: Utp5, S. cerevisiae, subunit of UtpA; No tag is named for it in either strain; strains are in Supplementary Data 1; source: endogenous, S. cerevisiae YSK32, co-purified with Utp10-GFP; overexpressed (galactose promoter) in S. cerevisiae YSK122, co-purified with Utp15-mCherry
B3: Utp8 (natural protein, S. cerevisiae, UniProt P53276 1-713, looked up)
chain: MPSLSQPFRLATLPKIASLSNFSLQADYVQVADGTFNESTNNITLGISGSSISQYIINPTPKLTFDYPIPSTNIITACNAEKGQANIDGNIEASTDDEANNEKTINTQKKRNVEIWAFGLMVNKGNYTLNVITKALEDTTDTSNDHLSESDIDNKAYTGSDEFLSQYKIKAKAKVMSIKIDTKNSLVIAILQNGLIEIFDFKLTLLHSFDISYDNLKYAKWFTENGTEYVFVLCPLQDDKVCYKLLELTDCGSGESSPIKELSSTIIEGFSFENSKLCYQFGKLYKLNQGKIYIYSLPHCQLQQVIEFPMVDKLSPGDDLISFQPVSVNRVLLTVNNVIYLLDLLHCSTLSQRELTHVKTFQLLKSAVINSEKSHNSKTIAIGISTKNGPNPTSSLEIINIDVGTNTLKDSLGKSFQVGNNDSSVILKPLFDDKDINDKRVKCNDVSGDSSVPVLHCNEVIEKLSALQDNDITSFDDIFFKELKIKEEHYTEKDRYISDPGFLNKVLDLIFGKFSGNDYPKTLTFLLTHPLFPLSRTRNLLSLLRDQPRLFKQAIVTCPNLPLNELLEELFSIRNRELLLDISFRILQDFTRDSIKQEMKKLSKLDVQNFIEFITSGGEDSSPECFNPSQSTQLFQLLSLVLDSIGLFSLEGALLENLTLYIDKQVEIAERNTELWNLIDTKGFQHGFASSTFDNGTSQKRALPTYTMEYLDI
notes: Utp8, S. cerevisiae, subunit of UtpA; No tag is named for it in either strain; strains are in Supplementary Data 1; source: endogenous, S. cerevisiae YSK32, co-purified with Utp10-GFP; overexpressed (galactose promoter) in S. cerevisiae YSK122, co-purified with Utp15-mCherry

Experiments:
Utp8 = biological target: B3; experiment: pull-down; Utp4, Utp5, Utp8, Utp9 and Utp15-3myc-TEV-mCherry-3FLAG overexpressed in yeast YSK122; lysate on anti-mCherry nanobody sepharose; 50 mM HEPES-NaOH pH 7.6, 100 mM NaCl, 4 °C; TEV elution; details: partners not purified
Utp9 = biological target: T1, Utp9 (S. cerevisiae, UniProt P38882 1-575); experiment: as above; details: partners not purified
T1 construct: Utp9, S. cerevisiae, subunit of UtpA; No tag is named for it in either strain; strains are in Supplementary Data 1; source: endogenous, S. cerevisiae YSK32, co-purified with Utp10-GFP; overexpressed (galactose promoter) in S. cerevisiae YSK122, co-purified with Utp15-mCherry
T1 sequence (looked up): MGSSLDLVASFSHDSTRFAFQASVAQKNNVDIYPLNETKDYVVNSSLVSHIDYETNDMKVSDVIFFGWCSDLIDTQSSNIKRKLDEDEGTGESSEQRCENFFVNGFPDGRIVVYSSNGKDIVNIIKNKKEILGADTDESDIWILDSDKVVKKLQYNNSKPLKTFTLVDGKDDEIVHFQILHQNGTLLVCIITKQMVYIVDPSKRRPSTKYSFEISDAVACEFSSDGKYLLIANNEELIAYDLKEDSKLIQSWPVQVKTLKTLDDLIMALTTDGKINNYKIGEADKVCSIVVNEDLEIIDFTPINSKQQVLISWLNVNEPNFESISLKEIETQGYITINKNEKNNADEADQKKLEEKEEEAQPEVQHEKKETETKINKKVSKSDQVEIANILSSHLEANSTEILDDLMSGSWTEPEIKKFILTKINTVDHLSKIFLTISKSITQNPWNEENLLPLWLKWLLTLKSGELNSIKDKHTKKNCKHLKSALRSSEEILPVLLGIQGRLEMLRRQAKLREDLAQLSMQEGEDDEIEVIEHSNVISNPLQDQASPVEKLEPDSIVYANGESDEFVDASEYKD

Utp5 = biological target: B2; experiment: as above; details: partners not purified
Utp10-3C-GFP [1] = biological target: T2, Utp10-3C-GFP (S. cerevisiae, UniProt P42945 1-1769); experiment: pull-down + SEC; endogenous UtpA from YSK32 lysate captured via Utp10-GFP on anti-GFP nanobody sepharose; 50 mM HEPES-NaOH pH 7.6, 200 mM NaCl, 1 mM EDTA, 4 °C; eluted with TEV and 3C protease; Superose 6; peak fraction on Coomassie-stained SDS-PAGE; details: partners not purified
T2 construct: Utp10, S. cerevisiae, subunit of UtpA (200 kDa); GFP is joined through a 3C protease site; it holds the protein on the beads in a1-a3 and is cleaved off by 3C on elution, so it is absent in the SEC step and in the DSS cross-linking (a6); also called Utp10-GFP; Utp10-sbp-H14-3C-GFP; source: S. cerevisiae YSK32, C-terminal tag integrated in the genome, endogenous level; captured from lysate on …

Utp10-3C-GFP [2] = biological target: T2, Utp10-3C-GFP; experiment: cross-linking; DSS (0.2 mM, H12/D12) cross-linking of SEC-purified endogenous UtpA, 25 °C, 30 min, 50 mM HEPES-NaOH pH 7.6, 200 mM NaCl, 1 mM EDTA; cross-linked peptides found by mass spectrometry (pLink); details: both partners purified
Utp4 = biological target: T3, Utp4 (S. cerevisiae, UniProt Q06679 1-776); experiment: as above; details: both partners purified
T3 construct: Utp4, S. cerevisiae, subunit of UtpA; No tag is named for it in either strain; strains are in Supplementary Data 1; source: endogenous, S. cerevisiae YSK32, co-purified with Utp10-GFP; overexpressed (galactose promoter) in S. cerevisiae YSK122, co-purified with Utp15-mCherry
T3 sequence (looked up): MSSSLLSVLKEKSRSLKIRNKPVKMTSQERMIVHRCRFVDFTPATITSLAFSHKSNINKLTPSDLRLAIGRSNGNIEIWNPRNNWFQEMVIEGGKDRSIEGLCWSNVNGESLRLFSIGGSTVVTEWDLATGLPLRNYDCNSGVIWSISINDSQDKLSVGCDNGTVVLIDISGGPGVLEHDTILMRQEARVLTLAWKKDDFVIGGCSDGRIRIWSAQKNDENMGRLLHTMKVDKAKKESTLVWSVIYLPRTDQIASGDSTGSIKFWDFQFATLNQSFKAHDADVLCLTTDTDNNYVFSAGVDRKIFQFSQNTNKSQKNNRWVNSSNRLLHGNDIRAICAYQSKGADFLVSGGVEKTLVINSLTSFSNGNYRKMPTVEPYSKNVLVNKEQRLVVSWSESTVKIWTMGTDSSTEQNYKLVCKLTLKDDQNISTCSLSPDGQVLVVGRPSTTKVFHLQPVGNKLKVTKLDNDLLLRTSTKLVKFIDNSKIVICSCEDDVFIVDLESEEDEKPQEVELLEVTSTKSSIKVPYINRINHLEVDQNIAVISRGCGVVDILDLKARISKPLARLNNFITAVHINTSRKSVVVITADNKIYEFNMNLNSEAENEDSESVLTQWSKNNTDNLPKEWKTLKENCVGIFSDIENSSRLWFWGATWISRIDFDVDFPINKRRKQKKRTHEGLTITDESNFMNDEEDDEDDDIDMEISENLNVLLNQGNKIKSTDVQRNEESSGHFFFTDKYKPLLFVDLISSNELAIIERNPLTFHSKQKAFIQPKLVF

T2 sequence (P42945 whole entry): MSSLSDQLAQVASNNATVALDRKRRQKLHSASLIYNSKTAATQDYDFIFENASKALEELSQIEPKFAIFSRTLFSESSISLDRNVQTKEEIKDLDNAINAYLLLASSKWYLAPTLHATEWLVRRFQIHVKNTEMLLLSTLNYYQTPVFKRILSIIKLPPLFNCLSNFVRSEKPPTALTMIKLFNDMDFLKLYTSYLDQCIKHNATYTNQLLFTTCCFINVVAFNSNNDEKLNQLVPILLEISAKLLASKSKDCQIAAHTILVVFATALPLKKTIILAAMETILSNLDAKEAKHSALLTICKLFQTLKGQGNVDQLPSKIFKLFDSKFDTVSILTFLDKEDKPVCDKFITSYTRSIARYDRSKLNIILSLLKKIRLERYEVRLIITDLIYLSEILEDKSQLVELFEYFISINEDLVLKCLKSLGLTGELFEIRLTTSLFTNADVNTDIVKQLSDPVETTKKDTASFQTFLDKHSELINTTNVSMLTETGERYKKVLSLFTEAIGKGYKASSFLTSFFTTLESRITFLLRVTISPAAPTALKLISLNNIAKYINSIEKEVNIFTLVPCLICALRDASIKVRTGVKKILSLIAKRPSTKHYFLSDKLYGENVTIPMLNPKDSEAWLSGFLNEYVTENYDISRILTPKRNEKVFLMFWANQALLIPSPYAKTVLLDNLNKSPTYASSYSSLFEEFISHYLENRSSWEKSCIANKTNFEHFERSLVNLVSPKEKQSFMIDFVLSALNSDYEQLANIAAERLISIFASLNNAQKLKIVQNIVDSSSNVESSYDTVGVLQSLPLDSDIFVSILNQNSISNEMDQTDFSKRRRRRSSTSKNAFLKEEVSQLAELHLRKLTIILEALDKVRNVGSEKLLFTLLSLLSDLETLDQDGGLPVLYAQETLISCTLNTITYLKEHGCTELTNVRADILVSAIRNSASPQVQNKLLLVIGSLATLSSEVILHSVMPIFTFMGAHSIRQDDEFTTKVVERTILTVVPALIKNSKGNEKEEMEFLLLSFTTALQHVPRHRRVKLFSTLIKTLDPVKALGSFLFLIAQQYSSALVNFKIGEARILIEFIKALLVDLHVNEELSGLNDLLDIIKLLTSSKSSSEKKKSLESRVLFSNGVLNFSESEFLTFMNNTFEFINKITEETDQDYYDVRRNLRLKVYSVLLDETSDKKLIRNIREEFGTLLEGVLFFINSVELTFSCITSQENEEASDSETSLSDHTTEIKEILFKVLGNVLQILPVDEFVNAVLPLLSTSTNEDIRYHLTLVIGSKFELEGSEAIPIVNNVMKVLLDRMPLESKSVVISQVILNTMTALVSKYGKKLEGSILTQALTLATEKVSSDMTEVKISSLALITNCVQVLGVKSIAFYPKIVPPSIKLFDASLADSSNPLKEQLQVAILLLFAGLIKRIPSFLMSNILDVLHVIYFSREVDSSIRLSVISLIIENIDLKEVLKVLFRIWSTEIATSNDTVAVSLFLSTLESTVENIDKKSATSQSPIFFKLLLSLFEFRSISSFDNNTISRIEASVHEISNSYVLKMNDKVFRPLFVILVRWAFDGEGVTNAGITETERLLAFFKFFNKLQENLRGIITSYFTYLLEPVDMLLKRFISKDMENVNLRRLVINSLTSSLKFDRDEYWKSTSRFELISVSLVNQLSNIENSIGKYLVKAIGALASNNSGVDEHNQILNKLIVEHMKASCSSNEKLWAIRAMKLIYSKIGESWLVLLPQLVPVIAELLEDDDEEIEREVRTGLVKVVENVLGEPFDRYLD

B1: Utp15-3myc-TEV-mCherry-3FLAG (overexpressed) (natural protein, S. cerevisiae, UniProt Q04305 1-513, looked up)
chain: MSTARPRIITSKAPLLPQQTTPEQRYWRQYTSAQLVKEHNSVTHISFNPQHPHDFAVTSSTRVQIFSSRTRQVIKTFSRFKDVVYSASFRSDGKLLCAGDATGLVSVYDSYNPRTILLSINASTHPTHVTKFHTQDNKILATASDDRVTRLWDISNAYEPQLELTGATDYVRTLSFIPAAPHLVATGSYDGLIRLYDTRSSGSTPIYSLNHDQPVENVIAVSPTQIVSCGGNNFKVWDLTSNKKLYERGNFNKAVTCLDYVENFDSPMQSALIASSLDGHVKVFDPLDNFQVKFGWKFSGPVLSCAVSPSTAQGNRHLVAGLSSGLLAIRTKKKEKRSSDKENAPASFNKNAKSNNFQRMMRGSEYQGDQEHIIHNDKVRSQRRMRAFERNINQFKWSEALDNAFVPGMAKELTLTVLQELRKRGKVRVALYGRDESTLEPLLNWCLKGIEDVRSASIVADWVAVVLELYGNTLESSPVLQELMIDLKTKVRHEIHKSKEAQRIEGMLQLLTS
notes: Utp15, S. cerevisiae, subunit of UtpA; Captured by mCherry in a4; the complex is eluted by TEV cleavage, so mCherry-3FLAG is off in the SEC step (a5); also called Utp15-TEV-mCherry; Utp15-mCherry; source: S. cerevisiae YSK122, overexpressed (galactose promoter); captured from lysate on anti-mCherry nanobody sepharose, TEV elution, SEC; not shown: 3myc, C-terminal, kept; mCherry, C-terminal, kept; …
binding result (Utp8): binds | binding result (Utp9): binds | binding result (Utp5): binds

B2
binding result (Utp10-3C-GFP [1]): binds

B3
binding result (Utp10-3C-GFP [2]): binds | binding result (Utp4): binds
